{
  "source": "the supplement of paper PMC5998384",
  "key": {"[1]": {"system": "HeLa Kyoto", "assay": "solubility in G1/S (NP-40 vs SDS abundance) (log2 ratio); higher = more soluble", "settings": "cell cycle stage: G1/S"}, "[2]": {"system": "HeLa Kyoto", "assay": "solubility change mitosis vs G1/S (difference of NP-40 vs SDS log2 ratios) (log2 ratio difference); higher = more soluble in mitosis"}},
  "data": [
    {"sequence": "MWGFRLLRSPPLLLLLPQLGIGNASSCSQARTMNPGGSGGARCSLSAEVRRRQCLQLSTVPGADPQRSNELLLLAAAGEGLERQDLPGDPAKEEPQPPPQHHVLYFPGDVQNYHEIMTRHPENYQWENWSLENVATILAHRFPNSYIWVIKCSRMHLHKFSCYDNFVKSNMFGAPEHNTDFGAFKHLYMLLVNAFNLSQNSLSKKSLNVWNKDSIASNCRSSPSHTTNGCQGEKVRTCEKSDESAMSFYPPSLNDASFTLIGFSKGCVVLNQLLFELKEAKKDKNIDAFIKSIRTMYWLDGGHSGGSNTWVTYPEVLKEFAQTGIIVHTHVTPYQVRDPMRSWIGKEHKKFVQILGDLGMQVTSQIHFTKEAPSIENHFRVHEVF [C2ORF69]", "values": [
      {"measurement": "solubility in G1/S (log2)", "setting": "[1]", "result": 0.0592},
      {"measurement": "solubility change mitosis (log2)", "setting": "[2]", "result": 0.0615}
    ]},
    {"sequence": "MADSSGRGAGKPATGPTNSSSAKKKDKRVQGGRVIESRYLQYEKKTTQKAPAGDGSQTRGKMSEGGRKSSLLQKSKADSSGVGKGDLQSTLLEGHGTAPPDLDLSAINDKSIVKKTPQLAKTISKKPESTSFSAPRKKSPDLSEAMEMMESQTLLLTLLSVKMENNLAEFERRAEKNLLIMCKEKEKLQKKAHELKRRLLLSQRKRELADVLDAQIEMLSPFEAVATRFKEQYRTFATALDTTRHELPVRSIHLEGDGQQLLDALQHELVTTQRLLGELDVGDSEENVQVLDLLSELKDVTAKKDLELRRSFAQVLELSAEASKEAALANQEVWEETQGMAPPSRWYFNQDSACRESGGAPKNTPLSEDDNPGASSAPAQATFISPSEDFSSSSQAEVPPSLSRSGRDLS [HAUS8]", "values": [
      {"measurement": "solubility in G1/S (log2)", "setting": "[1]", "result": 0.514},
      {"measurement": "solubility change mitosis (log2)", "setting": "[2]", "result": 0.189}
    ]},
    {"sequence": "MASSSGSSPRPAPDENEFPFGCPPTVCQDPKEPRALCCAGCLSENPRNGEDQICPKCRGEDLQSISPGSRLRTQEKAHPEVAEAGIGCPFAGVGCSFKGSPQSVQEHEVTSQTSHLNLLLGFMKQWKARLGCGLESGPMALEQNLSDLQLQAAVEVAGDLEVDCYRAPCSESQEELALQHFMKEKLLAELEGKLRVFENIVAVLNKEVEASHLALATSIHQSQLDRERILSLEQRVVELQQTLAQKDQALGKLEQSLRLMEEASFDGTFLWKITNVTRRCHESACGRTVSLFSPAFYTAKYGYKLCLRLYLNGDGTGKRTHLSLFIVIMRGEYDALLPWPFRNKVTFMLLDQNNREHAIDAFRPDLSSASFQRPQSETNVASGCPLFFPLSKLQSPKHAYVKDDTMFLKCIVETST [TRAF1]", "values": [
      {"measurement": "solubility in G1/S (log2)", "setting": "[1]", "result": 0.254},
      {"measurement": "solubility change mitosis (log2)", "setting": "[2]", "result": -0.305}
    ]},
    {"sequence": "MATPRGRTKKKASFDHSPDSLPLRSSGRQAKKKATETTDEDEDGGSEKKYRKCEKAGCTATCPVCFASASERCAKNGYTSRWYHLSCGEHFCNECFDHYYRSHKDGYDKYTTWKKIWTSNGKTEPSPKAFMADQQLPYWVQCTKPECRKWRQLTKEIQLTPQIAKTYRCGMKPNTAIKPETSDHCSLPEDLRVLEVSNHWWYSMLILPPLLKDSVAAPLLSAYYPDCVGMSPSCTSTNRAAATGNASPGKLEHSKAALSVHVPGMNRYFQPFYQPNECGKALCVRPDVMELDELYEFPEYSRDPTMYLALRNLILALWYTNCKEALTPQKCIPHIIVRGLVRIRCVQEVERILYFMTRKGLINTGVLSVGADQYLLPKDYHNKSVIIIGAGPAGLAAARQLHNFGIKVTVLEAKDRIGGRVWDDKSFKGVTVGRGAQIVNGCINNPVALMCEQLGISMHKFGERCDLIQEGGRITDPTIDKRMDFHFNALLDVVSEWRKDKTQLQDVPLGEKIEEIYKAFIKESGIQFSELEGQVLQFHLSNLEYACGSNLHQVSARSWDHNEFFAQFAGDHTLLTPGYSVIIEKLAEGLDIQLKSPVQCIDYSGDEVQVTTTDGTGYSAQKVLVTVPLALLQKGAIQFNPPLSEKKMKAINSLGAGIIEKIALQFPYRFWDSKVQGADFFGHVPPSASKRGLFAVFYDMDPQKKHSVLMSVIAGEAVASVRTLDDKQVLQQCMATLRELFKEQEVPDPTKYFVTRWSTDPWIQMAYSFVKTGGSGEAYDIIAEDIQGTVFFAGEATNRHFPQTVTGAYLSGVREASKIAAF [KDM1B]", "values": [
      {"measurement": "solubility in G1/S (log2)", "setting": "[1]", "result": -0.371},
      {"measurement": "solubility change mitosis (log2)", "setting": "[2]", "result": 0.0563}
    ]},
    {"sequence": "MELPAVNLKVILLGHWLLTTWGCIVFSGSYAWANFTILALGVWAVAQRDSIDAISMFLGGLLATIFLDIVHISIFYPRVSLTDTGRFGVGMAILSLLLKPLSCCFVYHMYRERGGELLVHTGFLGSSQDRSAYQTIDSAEAPADPFAVPEGRSQDARGY [AGTRAP]", "values": [
      {"measurement": "solubility in G1/S (log2)", "setting": "[1]", "result": 0.0387},
      {"measurement": "solubility change mitosis (log2)", "setting": "[2]", "result": -0.217}
    ]},
    {"sequence": "MSSESKEQHNVSPRDSAEGNDSYPSGIHLELQRESSTDFKQFETNDQCRPYHRILIERQEKSDTNFKEFVIKKLQKNCQCSPAKAKNMILGFLPVLQWLPKYDLKKNILGDVMSGLIVGILLVPQSIAYSLLAGQEPVYGLYTSFFASIIYFLLGTSRHISVGIFGVLCLMIGETVDRELQKAGYDNAHSAPSLGMVSNGSTLLNHTSDRICDKSCYAIMVGSTVTFIAGVYQVAMGFFQVGFVSVYLSDALLSGFVTGASFTILTSQAKYLLGLNLPRTNGVGSLITTWIHVFRNIHKTNLCDLITSLLCLLVLLPTKELNEHFKSKLKAPIPIELVVVVAATLASHFGKLHENYNSSIAGHIPTGFMPPKVPEWNLIPSVAVDAIAISIIGFAITVSLSEMFAKKHGYTVKANQEMYAIGFCNIIPSFFHCFTTSAALAKTLVKESTGCHTQLSGVVTALVLLLVLLVIAPLFYSLQKSVLGVITIVNLRGALRKFRDLPKMWSISRMDTVIWFVTMLSSALLSTEIGLLVGVCFSIFCVILRTQKPKSSLLGLVEESEVFESVSAYKNLQIKPGIKIFRFVAPLYYINKECFKSALYKQTVNPILIKVAWKKAAKRKIKEKVVTLGGIQDEMSVQLSHDPLELHTIVIDCSAIQFLDTAGIHTLKEVRRDYEAIGIQVLLAQCNPTVRDSLTNGEYCKKEEENLLFYSVYEAMAFAEVSKNQKGVCVPNGLSLSSD [SLC26A2]", "values": [
      {"measurement": "solubility in G1/S (log2)", "setting": "[1]", "result": -0.0844},
      {"measurement": "solubility change mitosis (log2)", "setting": "[2]", "result": -0.0606}
    ]},
    {"sequence": "MLGTLRAMEGEDVEDDQLLQKLRASRRRFQRRMQRLIEKYNQPFEDTPVVQMATLTYETPQGLRIWGGRLIKERNEGEIQDSSMKPADRTDGSVQAAAWGPELPSHRTVLGADSKSGEVDATSDQEESVAWALAPAVPQSPLKNELRRKYLTQVDILLQGAEYFECAGNRAGRDVRVTPLPSLASPAVPAPGYCSRISRKSPGDPAKPASSPREWDPLHPSSTDMALVPRNDSLSLQETSSSSFLSSQPFEDDDICNVTISDLYAGMLHSMSRLLSTKPSSIISTKTFIMQNWNSRRRHRYKSRMNKTYCKGARRSQRSSKENFIPCSEPVKGTGALRDCKNVLDVSCRKTGLKLEKAFLEVNRPQIHKLDPSWKERKVTPSKYSSLIYFDSSATYNLDEENRFRTLKWLISPVKIVSRPTIRQGHGENRQREIEIRFDQLHREYCLSPRNQPRRMCLPDSWAMNMYRGGPASPGGLQGLETRRLSLPSSKAKAKSLSEAFENLGKRSLEAGRCLPKSDSSSSLPKTNPTHSATRPQQTSDLHVQGNSSGIFRKSVSPSKTLSVPDKEVPGHGRNRYDEIKEEFDKLHQKYCLKSPGQMTVPLCIGVSTDKASMEVRYQTEGFLGKLNPDPHFQGFQKLPSSPLGCRKSLLGSTAIEAPSSTCVARAITRDGTRDHQFPAKRPRLSEPQGSGRQGNSLGASDGVDNTVRPGDQGSSSQPNSEERGENTSYRMEEKSDFMLEKLETKSV [HJURP]", "values": [
      {"measurement": "solubility in G1/S (log2)", "setting": "[1]", "result": -0.154},
      {"measurement": "solubility change mitosis (log2)", "setting": "[2]", "result": 0.197}
    ]},
    {"sequence": "MQRRSRGINTGLILLLSQIFHVGINNIPPVTLATLALNIWFFLNPQKPLYSSCLSVEKCYQQKDWQRLLLSPLHHADDWHLYFNMASMLWKGINLERRLGSRWFAYVITAFSVLTGVVYLLLQFAVAEFMDEPDFKRSCAVGFSGVLFALKVLNNHYCPGGFVNILGFPVPNRFACWVELVAIHLFSPGTSFAGHLAGILVGLMYTQGPLKKIMEACAGGFSSSVGYPGRQYYFNSSGSSGYQDYYPHGRPDHYEEAPRNYDTYTAGLSEEEQLERALQASLWDRGNTRNSPPPYGFHLSPEEMRRQRLHRFDSQ [RHBDD1]", "values": [
      {"measurement": "solubility in G1/S (log2)", "setting": "[1]", "result": -0.291},
      {"measurement": "solubility change mitosis (log2)", "setting": "[2]", "result": -0.0234}
    ]},
    {"sequence": "MENCSAASTFLTDSLELELGTEWCKPPYFSCAVDNRGGGKHFSGESYLCSGALKRLILNLDPLPTNFEEDTLEIFGIQWVTETALVNSSRELFHLFRQQLYNLETLLQSSCDFGKVSTLHCKADNIRQQCVLFLHYVKVFIFRYLKVQNAESHVPVHPYEALEAQLPSVLIDELHGLLLYIGHLSELPSVNIGAFVNQNQIKLFPPSWHLLHLHLDIHWLVLEILYMLGEKLKQVVYGHQFMNLASDNLTNISLFEEHCETLLCDLISLSLNRYDKVRSSESLMSDQCPCLCIKELWVLLIHLLDHRSKWFVSESFWNWLNKLLKTLLEKSSDRRRSSMPVIQSRDPLGFSWWIITHVASFYKFDRHGVPDEMRKVESNWNFVEELLKKSISVQGVILEEQLRMYLHCCLTLCDFWEPNIAIVTILWEYYSKNLNSSFSISWLPFKGLANTMKSPLSMLEMVKTCCCDKQDQELYKSSSSYTIFLCILAKVVKKAMKSNGPHPWKQVKGRIYSKFHQKRMEELTEVGLQNFFSLFLLLAAVAEVEDVASHVLDLLNFLKPAFVTSQRALIWKGHMAFLLMYAQKNLDIGVLAEKFSCAFREKAKEFLVSKNEEMVQRQTIWTLLSIYIDGVQEVFETSYCLYPSHEKLLNDGFSMLLRACRESELRTVLSFLQAVLARIRSMHQQLCQELQRDNVDLFVQSSLSAKERHLAAVASALWRHFFSFLKSQRMSQVVPFSQLADAAADFTLLAMDMPSTAPSDFQPQPVISIIQLFGWDDIICPQVVARYLSHVLQNSTLCEALSHSGYVSFQALTVRSWIRCVLQMYIKNLSGPDDLLIDKNLEEAVEKEYMKQLVKLTRLLFNLSEVKSIFSKAQVEYLSISEDPKKALVRFFEAVGVTYGNVQTLSDKSAMVTKSLEYLGEVLKYIKPYLGKKVFSAGLQLTYGMMGILVKSWAQIFATSKAQKLLFRIIDCLLLPHAVLQQEKELPAPMLSAIQKSLPLYLQGMCIVCCQSQNPNAYLNQLLGNVIEQYIGRFLPASPYVSDLGQHPVLLALRNTATIPPISSLKKCIVQVIRKSYLEYKGSSPPPRLASILAFILQLFKETNTDIYEVELLLPGILKCLVLVSEPQVKRLATENLQYMVKACQVGSEEEPSSQLTSVFRQFIQDYGMRYYYQVYSILETVATLDQQVVIHLISTLTQSLKDSEQKWGLGRNIAQREAYSKLLSHLGQMGQDEMQRLENDNT [MMS22L]", "values": [
      {"measurement": "solubility in G1/S (log2)", "setting": "[1]", "result": -0.523},
      {"measurement": "solubility change mitosis (log2)", "setting": "[2]", "result": -0.109}
    ]}
  ]
}
